In experiment [1] the target is Hemagglutinin (HA) of Influenza SW [change] 1089/09 swine pandemic H1N1 (inactivated subunits, vaccine) (Influenza A virus SW [change] swine pandemic H1N1). Description: cell-based or functional assay.
Experiment [2] deals with Hemagglutinin (HA) of Avian 29/05/06 H5N1 (inactivated vaccine) (Influenza A virus Avian 29/05/06 H5N1). The experiment in a line: cell-based or functional assay.

B1: bLf C-lobe (aa 345-689) (protein)
chain: VVWCAVGPEEQKKCQQWSQQSGQNVTCATASTTDDCIVLVLKGEADALNLDGGYIYTAGKCGLVPVLAENRKSSKHSSLDCVLRPTEGYLAVAVVKKANEGLTWNSLKDKKSCHTAVDRTAGWNIPMGLIVNQTGSCAFDEFFSQSCAPGADPKSRLCALCAGDDQGLDKCVPNSKEKYYGYTGAFRCLAEDVGDVAFVKNDTVWENTNGESTADWAKNLNREDFRLLCLDGTRKPVTEAQSCHLAVAPNHAVVSRSDRAAHVKQVLLHQQALFGKNGKNCPDKFCLFKSETKNLLFNDNTECLAKLGGRPTYEEYLGTEYVTAIANLKKCSTSPLLEACAFLTR
As to B1, the activity on viral hemagglutination (HI) in experiment [1] is 46.5 fM; in experiment [2], 2.4 pM.

B2: bLf C-lobe (aa 285-689) (protein)
chain: SFQLFGSPPGQRDLLFKDSALGFLRIPSKVDSALYLGSRYLTTLKNLRETAEEVKARYTRVVWCAVGPEEQKKCQQWSQQSGQNVTCATASTTDDCIVLVLKGEADALNLDGGYIYTAGKCGLVPVLAENRKSSKHSSLDCVLRPTEGYLAVAVVKKANEGLTWNSLKDKKSCHTAVDRTAGWNIPMGLIVNQTGSCAFDEFFSQSCAPGADPKSRLCALCAGDDQGLDKCVPNSKEKYYGYTGAFRCLAEDVGDVAFVKNDTVWENTNGESTADWAKNLNREDFRLLCLDGTRKPVTEAQSCHLAVAPNHAVVSRSDRAAHVKQVLLHQQALFGKNGKNCPDKFCLFKSETKNLLFNDNTECLAKLGGRPTYEEYLGTEYVTAIANLKKCSTSPLLEACAFLTR
Take B2: the activity on viral hemagglutination (HI) turned out to be 46.5 fM in experiment [1] and 2.9 pM in experiment [2].

(Values after US20140322196A1.)
